# Measurements taken from patent publication US20210269532A1.
# How the values were obtained:
# [1] = molecular target: cynomolgus AXL extracellular domain transiently expressed on CHO-S cells (cynomolgus); assay: flow cytometry, serial dilution on CHO-S cells transiently expressing cynomolgus AXL ECD, AF647 anti-human IgG secondary, GeoMean (RL1-H)
# [2] = molecular target: human AXL extracellular domain transiently expressed on CHO-S cells (human) (UniProt P30530); assay: flow cytometry, serial dilution on CHO-S cells transiently expressing human AXL ECD, AF647 anti-human IgG secondary, GeoMean (RL1-H)
# [3] = molecular target: His-tagged human AXL extracellular domain (recombinant) (human) (UniProt P30530); assay: SPR classical sandwich assay (IBIS MX96): 100 nM analyte over AXL-His ECD held by the surface-captured Control antibody (f2); white cell = sandwiching
# [4] = molecular target: His-tagged human AXL extracellular domain (recombinant) (human) (UniProt P30530); assay: SPR classical sandwich assay (IBIS MX96): 100 nM analyte over AXL-His ECD held by surface-captured YW327.6S2 IgG1-LALA analogue; grey cell = blocked (self)
# [5] = molecular target: His-tagged human AXL extracellular domain (recombinant) (human) (UniProt P30530); assay: SPR classical sandwich assay (IBIS MX96): 100 nM analyte over AXL-His ECD held by surface-captured 10G5 analogue; white cell = sandwiching
# [6] = molecular target: His-tagged human AXL extracellular domain (recombinant) (human) (UniProt P30530); assay: SPR classical sandwich assay (IBIS MX96): 100 nM analyte over AXL-His ECD held by surface-captured 22883; white cell = sandwiching
# [7] = molecular target: His-tagged human AXL extracellular domain (recombinant) (human) (UniProt P30530); assay: SPR classical sandwich assay (IBIS MX96): 100 nM analyte over AXL-His ECD held by surface-captured 23203-1; white cell = sandwiching
# [8] = molecular target: His-tagged human AXL extracellular domain (recombinant) (human) (UniProt P30530); assay: SPR classical sandwich assay (IBIS MX96): 100 nM analyte over AXL-His ECD held by surface-captured 22995; white cell = sandwiching
# Sequence of YW327.6S2 IgG1-LALA analogue (Genentech) (antibody) (VH): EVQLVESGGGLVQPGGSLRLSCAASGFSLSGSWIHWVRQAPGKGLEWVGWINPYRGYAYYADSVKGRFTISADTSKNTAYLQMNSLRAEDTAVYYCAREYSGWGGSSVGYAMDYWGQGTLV
# Sequence of YW327.6S2 IgG1-LALA analogue (Genentech) (antibody) (VL): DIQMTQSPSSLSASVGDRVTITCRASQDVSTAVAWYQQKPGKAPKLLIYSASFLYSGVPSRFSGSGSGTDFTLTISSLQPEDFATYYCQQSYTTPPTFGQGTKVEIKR
# Sequence of His-tagged human AXL extracellular domain (recombinant) (human) (P30530 26-451): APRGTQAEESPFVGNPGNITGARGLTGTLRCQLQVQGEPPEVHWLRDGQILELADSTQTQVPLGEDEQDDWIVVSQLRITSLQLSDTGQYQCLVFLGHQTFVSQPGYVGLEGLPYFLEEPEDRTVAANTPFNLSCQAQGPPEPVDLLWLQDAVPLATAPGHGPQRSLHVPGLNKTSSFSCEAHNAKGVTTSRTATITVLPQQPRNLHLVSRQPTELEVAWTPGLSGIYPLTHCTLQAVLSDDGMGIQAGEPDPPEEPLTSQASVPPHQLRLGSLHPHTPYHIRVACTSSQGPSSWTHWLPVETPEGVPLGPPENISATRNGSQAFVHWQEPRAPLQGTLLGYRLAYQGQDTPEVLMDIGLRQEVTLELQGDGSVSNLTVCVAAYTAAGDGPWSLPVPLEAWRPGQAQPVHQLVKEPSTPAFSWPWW
# Sequence of human AXL extracellular domain transiently expressed on CHO-S cells (human) (P30530 26-451 limits assumed): as the sequence (P30530 26-451) above
EC50 (read off the curve) [1],EC50 (read off the curve) [2],normalized SPR sandwich response [3],normalized SPR sandwich response [4],normalized SPR sandwich response [5],normalized SPR sandwich response [6],normalized SPR sandwich response [7],normalized SPR sandwich response [8],Substance
0.008 µg/mL,0.006 µg/mL,–,–,–,–,–,–,10G5 IgG1-LALA analogue (BerGenBio) (antibody)
0.05 µg/mL,0.06 µg/mL,–,–,–,–,–,–,Ax225 IgG1-LALA analogue (Chugai) (antibody)
–,–,1.3,0,1.2,3.9,1.1,1.1,YW327.6S2 IgG1-LALA analogue (Genentech) (antibody)
